From patent US20190375786A1, “STABLE PEPTIDES AND METHODS OF USE THEREOF” (Fred Hutchinson Cancer Research Center, priority 2016, published 2019)

Assays:
[1] = Resistance to elevated temperature, HPLC; type: physicochemical; conditions: HPLC peak vs untreated peptide; for Resistance to Temperature (75° C.): 75° C. for one hour; for Resistance to Temperature (100° C.): 100° C. for one hour
Procedure: (§1) Peptides were first suspended in 500 μl of ddH2O to a stock concentration of 2 mg/ml. Reactions were prepared by adding 12.5 μg of peptide from the stock solution to a 10 mM solution of DTT in PBS and allowed to incubate at room temperature for 30 minutes. Other reactions were prepared with 12.5 μg peptide and 500 U/ml trypsin in 25 mM Tris/75 mM NaCl buffer (pH 7.0) and incubated for 30 minutes at 37.5° C. These reactions were then quenched with 5 μg of soybean trypsin inhibitor (I) and, in some cases, 10 mM dithiothreitol (DTT). Reversed phase HPLC (RP-HPLC) was run on samples using an Agilent 1260 HPLC equipped with a C-18 Poroshell 120B column. Sample were analyzed by a gradient method with a mobile phase of Solvent A (water with 0.1% TFA) and Solvent B (acetonitrile with 0.1% TFA). Solvent B was ramped up from 5%-45% of the mobile phase over a period of 10 minutes. For testing pepsin digestion resistance, reactions were prepared with 12.5 μg peptide with or without 500 U/ml pepsin in simulated gastric fluid (SGF; pH 1.05; […] sodium chloride in 0.7% (v/v) hydrochloric acid) and were incubated for 30 minutes at 37.5° C. For testing temperature resistance, peptides were incubated at 70° C., 75° C., or 100° C. for one hour in 0.5 mM PBS, pelleted, and then the supernatant was analyzed by HPLC.
This example illustrates peptide stability at high temperatures. Peptides were first suspended in 500 μl of ddH2O to a stock concentration of 2 mg/ml. Reactions were prepared by adding 6.25 μl of peptide from the stock solution with 95 μl ddH2O and incubated at room temperature, 70° C., or 100° C. for one hour in a Thermocycler. RP-HPLC was then run on samples using an Agilent 1260 HPLC equipped with a C-18 Poroshell 120B column. Sample were analyzed by a gradient method with a mobile phase of Solvent A (water with 0.1% TFA) and Solvent B (acetonitrile with 0.1% TFA). Solvent B was ramped up from 5%-45% of the mobile phase over a period of 10 minutes.

[2] = biological target: pepsin (Sus scrofa, UniProt P00791); test: Pepsin digestion resistance in simulated gastric fluid, RP-HPLC; type: in vitro ADME, porcine; design: purchased Sigma Aldrich P7012; conditions: 500 U/ml pepsin in SGF pH 1.05, 30 minutes at 37.5° C.; HPLC peak vs untreated peptide
Chain of pepsin (P00791 60-385): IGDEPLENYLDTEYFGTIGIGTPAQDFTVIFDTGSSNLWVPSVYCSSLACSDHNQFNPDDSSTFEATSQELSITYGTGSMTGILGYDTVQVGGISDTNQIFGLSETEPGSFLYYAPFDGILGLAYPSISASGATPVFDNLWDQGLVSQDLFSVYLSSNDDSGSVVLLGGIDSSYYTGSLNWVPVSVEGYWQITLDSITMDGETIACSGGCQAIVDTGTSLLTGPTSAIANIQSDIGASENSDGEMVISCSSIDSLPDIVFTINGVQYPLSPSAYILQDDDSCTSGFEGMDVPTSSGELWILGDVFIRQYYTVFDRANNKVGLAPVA
Procedure, shortened: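 Peptide (12.5 μg) incubated 30 min at 37.5 °C with or without 500 U/ml pepsin in simulated gastric fluid (pH 1.05; 2% NaCl in 0.7% HCl); some reactions quenched with 100 mM Tris and 10 mM DTT. Intact peptide followed by C-18 RP-HPLC (5–45% acetonitrile/0.1% TFA over 10 min) at 214 and 280 nm.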

[3] = Resistance to reduction by DTT, RP-HPLC; type: physicochemical; conditions: 10 mM DTT in PBS, room temperature, 30 minutes; HPLC peak vs untreated peptide
Procedure: Peptides were first suspended in 500 ul of ddH2O to a stock concentration of 2 mg/ml. Reactions were prepared by adding 12.5 ug of peptide from the stock solution to a 10 mM solution of DTT in PBS and allowed to incubate at room temperature for 30 minutes. Other reactions were prepared with 12.5 μg peptide with or without 500 U/ml pepsin in simulated gastric fluid (SGF; pH 1.05; […] sodium chloride in 0.7% (v/v) hydrochloric acid) and were incubated for 30 minutes at 37.5° C. Some reactions were quenched with a final concentration of 100 mM Tris base and 10 mM dithiothreitol (DTT). Some reactions were performed in all of the above components, including simulated gastric fluid, pepsin, Tris, and DTT (referred to as SPTD). Reversed phase HPLC (RP-HPLC) was run on samples using an Agilent 1260 HPLC equipped with a C-18 Poroshell 120B column. Sample were analyzed by a gradient method with a mobile phase of Solvent A (water with 0.1% TFA) and Solvent B (acetonitrile with 0.1% TFA). Solvent B was ramped up from 5%-45% of the mobile phase over a period of 10 minutes. Peptides were detected at an absorbance of 214 nm and 280 nm.
as §1
This example illustrates peptide stability in biological conditions including in the presence of reducing agents, proteases, oxidative conditions, acidic conditions, and simulated gastric fluids. […] Various peptides were suspended in 500 μl of ddH2O at a stock concentration of 2 mg/ml. This was then diluted in accord with the reaction conditions to prevent adverse buffering effects. Reactions were prepared with 12.5 μg peptide dissolved in solution and, in some samples, additionally suspended in a 10 mM solution of DTT, simulated gastric fluid (pH 1.05; […] sodium chloride in 0.7% (v/v) hydrochloric acid), 500 U pepsin (5000 U/ml pepsin), 50 U trypsin (500 U/ml trypsin) with 1 mg/ml inhibitor in PBS, or a combination of any of these conditions. All protease reactions were incubated for 30 min at room temperature and then quenched. Pepsin reactions were quenched by adding Tris base to a final concentration of 0.075 M. Trypsin reactions were quenched by adding excess soybean trypsin inhibitor. RP-HPLC was then run on samples using an Agilent 1260 HPLC equipped with a C-18 Poroshell 120B column. Sample were analyzed by a gradient method with a mobile phase of Solvent A (water with 0.1% TFA) and Solvent B (acetonitrile with 0.1% TFA). Solvent B was ramped up from 5%-45% of the mobile phase over a period of 10 minutes.
FIG. 18 illustrates high performance liquid chromatograph (HPLC) traces of peptides in non-reducing (NR) conditions (solid trace) or in 10 mM DTT reducing (R) conditions (dashed trace). […]

[4] = biological target: trypsin (Sus scrofa, UniProt P00761); test: Trypsin digestion resistance of soluble peptide, RP-HPLC; type: in vitro ADME, porcine; design: purchased Sigma Aldrich 6567; conditions: 500 U/ml trypsin, 30 minutes at 37.5° C.; HPLC peak vs untreated peptide
Chain of trypsin (P00761 9-231): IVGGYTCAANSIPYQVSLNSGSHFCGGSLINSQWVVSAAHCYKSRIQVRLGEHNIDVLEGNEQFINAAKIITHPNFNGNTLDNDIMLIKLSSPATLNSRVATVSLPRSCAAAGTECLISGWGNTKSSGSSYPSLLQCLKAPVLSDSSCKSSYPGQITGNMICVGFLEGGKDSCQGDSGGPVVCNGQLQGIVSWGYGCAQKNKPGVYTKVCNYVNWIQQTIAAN
Procedure, shortened: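 12.5 μg soluble peptide digested with 500 U/ml porcine trypsin in PBS, 30 min at 37.5° C; quenched with soybean trypsin inhibitor, with or without 10 mM DTT reduction afterwards. Intact peptide assessed by C-18 RP-HPLC, 5-45% acetonitrile/0.1% TFA gradient over 10 min.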

Row | Substance | Resistance to Temperature (75° C.) [1] | Resistance to Temperature (100° C.) [1] | Resistance to Pepsin (500 U/ml) [2] | Resistance to DTT Reduction (10 mM) [3] | Resistance to Trypsin (500 U/ml) [4]
1 | 9 (GSQFCGTNGKPCVNGQCCGALRCVVTYHYADGVCLKMNP) [compound 9] | High (A peptide classified as high indicates that the majority (at least 75%) of the HPLC peak of the treated peptide is still present as compared to the HPLC peak of the untreated peptide) | Low (A peptide classified as low indicates that the majority (over 75%) of the HPLC peak of the treated peptide disappeared as compared to the HPLC peak of the untreated peptide) | High (A peptide classified as high indicates that the majority (at least 75%) of the HPLC peak of the treated peptide is still present as compared to the HPLC peak of the untreated peptide) | Low (A peptide classified as low indicates that the majority (over 75%) of the HPLC peak of the treated peptide disappeared as compared to the HPLC peak of the untreated peptide) | Moderate (A peptide classified as medium indicates that about half (between 25% and 75%) of the HPLC peak of the treated peptide disappeared as compared to the HPLC peak of the untreated peptide)
2 | 14 (GSSDYCSNDFCFFSCRRDRCARGDCENGKCVCKNCHLN) [compound 14] | High (A peptide classified as high indicates that the majority (at least 75%) of the HPLC peak of the treated peptide is still present as compared to the HPLC peak of the untreated peptide) | High (A peptide classified as high indicates that the majority (at least 75%) of the HPLC peak of the treated peptide is still present as compared to the HPLC peak of the untreated peptide) | Moderate (A peptide classified as medium indicates that about half (between 25% and 75%) of the HPLC peak of the treated peptide disappeared as compared to the HPLC peak of the untreated peptide) | Low (A peptide classified as low indicates that the majority (over 75%) of the HPLC peak of the treated peptide disappeared as compared to the HPLC peak of the untreated peptide) | Low (A peptide classified as low indicates that the majority (over 75%) of the HPLC peak of the treated peptide disappeared as compared to the HPLC peak of the untreated peptide)
3 | 7 (GSDRDSCIDKSRCSKYGYYQECQDCCKKAGHNGGTCMFFKCKCA) [compound 7] | High (A peptide classified as high indicates that the majority (at least 75%) of the HPLC peak of the treated peptide is still present as compared to the HPLC peak of the untreated peptide) | High (A peptide classified as high indicates that the majority (at least 75%) of the HPLC peak of the treated peptide is still present as compared to the HPLC peak of the untreated peptide) | High (A peptide classified as high indicates that the majority (at least 75%) of the HPLC peak of the treated peptide is still present as compared to the HPLC peak of the untreated peptide) | Low (A peptide classified as low indicates that the majority (over 75%) of the HPLC peak of the treated peptide disappeared as compared to the HPLC peak of the untreated peptide) | Low (A peptide classified as low indicates that the majority (over 75%) of the HPLC peak of the treated peptide disappeared as compared to the HPLC peak of the untreated peptide)
4 | 4 (GSGDCLPHLKRCKENNDCCSKKCKRRGANPEKRCR) [compound 4] | High (A peptide classified as high indicates that the majority (at least 75%) of the HPLC peak of the treated peptide is still present as compared to the HPLC peak of the untreated peptide) | Low (A peptide classified as low indicates that the majority (over 75%) of the HPLC peak of the treated peptide disappeared as compared to the HPLC peak of the untreated peptide) | High (A peptide classified as high indicates that the majority (at least 75%) of the HPLC peak of the treated peptide is still present as compared to the HPLC peak of the untreated peptide) | Low (A peptide classified as low indicates that the majority (over 75%) of the HPLC peak of the treated peptide disappeared as compared to the HPLC peak of the untreated peptide) | Low (A peptide classified as low indicates that the majority (over 75%) of the HPLC peak of the treated peptide disappeared as compared to the HPLC peak of the untreated peptide)
5 | 21 (GSRCQLQGFNCVVRSYGLPTIPCCRGLTCRSYFPGSTYGRCQRY) [compound 21] | High (A peptide classified as high indicates that the majority (at least 75%) of the HPLC peak of the treated peptide is still present as compared to the HPLC peak of the untreated peptide) | Low (A peptide classified as low indicates that the majority (over 75%) of the HPLC peak of the treated peptide disappeared as compared to the HPLC peak of the untreated peptide) | High (A peptide classified as high indicates that the majority (at least 75%) of the HPLC peak of the treated peptide is still present as compared to the HPLC peak of the untreated peptide) | Low (A peptide classified as low indicates that the majority (over 75%) of the HPLC peak of the treated peptide disappeared as compared to the HPLC peak of the untreated peptide) | Moderate (A peptide classified as medium indicates that about half (between 25% and 75%) of the HPLC peak of the treated peptide disappeared as compared to the HPLC peak of the untreated peptide)
